The values that follow come from PMC7313238 (Journal of the American Society for Mass Spectrometry, 2020).

This data set deals with the molecule itself. As to the kind of experiment: SEC + native MS.

B1: BX1 from Zea mays (zmBX1), wild type (enzyme)
chain: SRPVSDTMAALMAKGKTAFIPYITAGDPDLATTAEALRLLDGCGADVIELGVPCSDPYIDGPIIQASVARALASGTTMDAVLEMLREVTPELSCPVVLLSYYKPIMSRSLAEMKEAGVHGLIVPDLPYVAAHSLWSEAKNNNLELVLLTTPAIPEDRMKEITKASEGFVYLVSVNGVTGPRANVNPRVESLIQEVKKVTNKPVAVGFGISKPEHVKQIAQWGADGVIIGSAMVRQLGEAASPKQGLRRLEEYARGMKNALP
As for B1, the “stoichiometry N” value was determined as 2.
